Among the data in PMC11597407 (2024) are Kd values, retold here.

Ends that are not written are not given here.

Experiment [1] concerns the target T1, talin1 F2F3 domains.
T1 chain: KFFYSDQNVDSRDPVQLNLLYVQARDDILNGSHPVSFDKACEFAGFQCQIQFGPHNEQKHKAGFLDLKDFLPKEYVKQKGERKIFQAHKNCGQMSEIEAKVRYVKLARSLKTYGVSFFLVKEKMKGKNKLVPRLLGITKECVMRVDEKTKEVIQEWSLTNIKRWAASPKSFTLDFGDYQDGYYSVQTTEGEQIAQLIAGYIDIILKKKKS
The experiment in a line: FP.

Experiment [2] concerns the target T2, talin2 F2F3 domains.
T2 chain: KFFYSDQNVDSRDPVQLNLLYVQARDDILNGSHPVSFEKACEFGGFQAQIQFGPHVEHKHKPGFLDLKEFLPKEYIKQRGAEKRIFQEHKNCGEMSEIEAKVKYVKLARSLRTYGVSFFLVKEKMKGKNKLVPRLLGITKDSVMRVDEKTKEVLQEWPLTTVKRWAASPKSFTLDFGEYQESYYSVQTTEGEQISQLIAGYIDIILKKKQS
The experiment in a line: FP.

In experiment [1], KLLMIIHDRREFAKFEKEKMNAKWDTGENPIYKSAVTTVVNPKYEGK (not fully specified (N-terminus)) [β1A, listing 1 of 2 here] had a Kd of 95.1 µM. This counts as double-digit micromolar.

Consider KLLMIIHDRREFAKFEKEKMNAKWDTGENPIYKSAVTTVVNPKYEGK (not fully specified (N-terminus)) [β1A, listing 2 of 2 here], for which, in experiment [2], the Kd turned out to be 35.3 µM. This counts as double-digit micromolar.

The Kd is the free concentration of one partner at which half of the binding sites on the other are occupied at equilibrium, for simple one-to-one binding.
